According to US10172850B2, “Substituted diketopiperazine analogs for use as drug delivery agents” (MannKind Corporation, priority 2008, dated 2019):

Experiments:
[1] = Mean glucose levels in rats administered various substituted DKP/insulin powders (Example 6, FIG. 9); format: in vivo, female Sprague Dawley rats; conditions: insulin 0.5 U/kg subcutaneous, pre-dose 132 mg/dL
Excerpt: (§1) For this study, substituted diketopiperazine/insulin powders were made each containing either (E)-3-(4-(3,6-dioxopiperazin-2-yl)butylcarbamoyl)-acrylic acid (Compound 3) and insulin; or (E)-3-(3-(3,6-dioxopiperazin-2-yl)propylcarbamoyl)-acrylic acid (Compound 4) and insulin; or (E)-3-(4-(5-isopropyl-(3,6-dioxopiperazin-2-yl)butylcarbamoyl)-acrylic acid (Compound 5) and insulin, and administered to each of 3 female Sprague Dawley rats per group via pulmonary insufflation.
(§2) The rats were divided into 5 groups as follows. Group 1 rats received a formulation containing Compound 3 with an 11.4% insulin content (Formulation 3) via pulmonary insufflation. Group 2 rats were administered a formulation Compound 3 with a 25% insulin content (Formulation 3) by pulmonary insufflation. Group 3 rats received a formulation of Compound 4 with an 11.4% insulin content (Formulation 4) by pulmonary insufflation. Group 4 rats received a formulation of Compound 5 with 11.4% insulin content by pulmonary insufflation. Group 5 rats received insulin (0.5 U/kg) via subcutaneous administration.
(§3) Blood samples were taken on the day of dosing for each rat per group before (0 minutes) and 10, 20, 40, and 60 minutes after administration of the formulations, except for the insulin control group (group 5), for which an additional sample was collected at 120 minutes after dosing. At each time point, approximately 10 μL of whole blood was collected from the lateral tail vein of rats in each group and analyzed for measurements of insulin and glucose concentrations.

[2] = Mean serum insulin levels and relative bioavailability of substituted DKP/insulin powders (Example 6, FIG. 10, Table 2)
Excerpt: as §1, §2, §3

[3] = Mean serum insulin concentrations in rats administered DKP and insulin powders (Example 5, FIG. 8); conditions: 20 minutes post dose; 1.4 mg insulin in saline; pulmonary liquid instillation (INS)
Procedure: (§4) Blood samples were taken on the day of dosing for each rat per group at pre-dose (0 minutes), 5, 20, 40, 60, and 120 minutes post dose. […] Body weights ranged from 214-250 grams.

[4] = rat, in vivo
Procedure: as §4

[5] = serum insulin, insulin 0.5 U/kg subcutaneous

insulin concentration [4] [μU/mL] | Compound | blood glucose level ([1]; 40 minutes post dose) [mg/dL] | blood glucose level ([1]; 1 hour post dose) [mg/dL] | blood glucose level ([1]; 2 hours post dose) [mg/dL] | serum insulin concentration ([2]; 20 minutes post dose, insulin by subcutaneous injection) [μU/mL] | BIOAVAILABILITY ([2]; insulin 0.5 U/kg subcutaneous (reference)) [%] | Tmax [2, 5] [min] | T½ [2, 5] [min] | serum insulin concentration [3] [μU/mL]
 | insulin | 43 | 42 | 34 | 9360 | 100 | 20 | 9.18 | 6703
505 | O=C(O)/C=C/C(=O)NCCCC1NC(=O)C(CCCNC(=O)/C=C/C(=O)O)NC1=O (stereo not drawn) [Compound 2, (E)-3,6-bis[(N-carboxy-2-propenyl)-amidopropyl]-2,5-diketopiperazine] |  |  |  |  |  |  |  | 
